These results are taken from the supplement of paper PMC10567573.

The data set can be described thus: protein stability index of a GFP-peptide fusion (GPS, HEK-293T) (PSI 1-6); higher = more stable. The conditions noted are these: c terminus: a fixed tail appended.

± gives the standard deviation.
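Also: 24-mer peptide tiles fused after GFP, lentivirally expressed, FACS-sorted into six equal bins by GFP/DsRed ratio, decoded by Illumina sequencing, PSI is the read-weighted mean bin number.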

For TGAHWMRQPVSFHRVKLTNSTLDP [TBX6], the protein stability index was determined as 2.96 ± 0.074 (treatment: DMSO) and 3.02 ± 0.16 (treatment: MLN4924 1 uM, 8 h).
For TGESKEQVANSAFVERVRKRGFEV [HSP90AB1], in that order: 4.18 ± 0.15 and 4.26 ± 0.12.
For TGIIDSLTISPKAARVGLLQYSTQ [MATN2], in that order: 2.72 ± 1.3 and 2.43 ± 0.23.
For TGVQEVLSALLRATPGEYSVNICG [SPAG8], in that order: 2.5 ± 0.59 and 2.23 ± 0.16.
In turn, THEEGSYLFWEFATDNYDIGFGVY [ACBD3] had a protein stability index (treatment: DMSO) of 2.65 ± 0.48 and a protein stability index (treatment: MLN4924 1 uM, 8 h) of 2.15 ± 0.32.
For THPVTNTTEKQRLVKKLQDSVLER [GOLPH3L], in that order: 4.13 ± 0.2 and 4.39 ± 0.13.
For TISFRIYKSVLQAVQKTDEGHPFK [RTN1], in that order: 2.13 ± 0.17 and 2.28 ± 0.13.
For TKEVMNKYKVHGKEILRTLQDVFC [PPEF2], in that order: 2.63 ± 0.12 and 2.65 ± 0.34.
With TKKGFYSLSVRHRQVKHYRIFRLP [SLA], the protein stability index runs as follows: (treatment: DMSO) 2.54 ± 0.45; (treatment: MLN4924 1 uM, 8 h) 2.54 ± 0.31.
For TKMWHPNIYENGDVCISILHPPVD [UBE2R2], in that order: 2.11 ± 0.34 and 2.23 ± 0.055.
For TLEEKFSDVHPVALNFMKGCLKMN [CDKL4], in that order: 3.08 ± 0.34 and 3.16 ± 0.27.
With TLGGELGALEALELSPPLSPASHV [FOXJ1], the protein stability index reads like this: (treatment: DMSO) 4.12 ± 0.3; (treatment: MLN4924 1 uM, 8 h) 4.26 ± 0.098.
For TLQGLYLVYHPVQLSTPHAVGVLL [DHCR7], in that order: 3.18 ± 0.49 and 2.97 ± 0.5.
For TLRTCYAANPRPDALMKEQLVEMT [ISL2], in that order: 3.53 ± 0.22 and 3.52 ± 0.28.
For TLSASSSAGGSRTPAMSSSSSSRV [TFE3], in that order: 4.57 ± 0.46 and 4.96 ± 0.25.
TLSTIEFQREALENSHTNTEVLRN [CHMP4C]: the protein stability index came out at 4.66 ± 0.14 (treatment: DMSO) and 4.92 ± 0.19 (treatment: MLN4924 1 uM, 8 h).
For TNEKALEAVFGKYGRIVEVLLMKD [RBMX], in that order: 1.97 ± 0.46 and 2.15 ± 0.29.
For TNKFYMLDSRSTDRVLQWERIDCQ [KLHDC2], in that order: 2.43 ± 0.36 and 2.8 ± 0.58.
For TPSLLRFALASLLQSAPDVKGRVR [ZSWIM9], the protein stability index is 2.5 ± 0.16 (treatment: DMSO) and 2.53 ± 0.34 (treatment: MLN4924 1 uM, 8 h).
On to TQEKKAESKEPIEEEPTGAGLNKD [SDE2], for which the protein stability index came out at 5.65 ± 0.12 (treatment: DMSO) and 5.41 ± 0.28 (treatment: MLN4924 1 uM, 8 h).
For TQGCHPAWEPRSESQASRKEEGLP [ZNF8], in that order: 4.89 ± 0.25 and 4.96 ± 0.18.
For TQHFVQENYLEYRQVPGSDPACYE [MAGEA3], in that order: 4.26 ± 0.081 and 4.34 ± 0.12.
For TQLKIENNPFAKGFRGSDDMELHR [TBX5], the protein stability index amounted to 4.04 ± 0.25 (treatment: DMSO) and 4.02 ± 0.67 (treatment: MLN4924 1 uM, 8 h).
For TQQWTAICPLKERRFGAVACGVAM [GAN], in that order: 2.83 ± 0.37 and 2.52 ± 0.55.
For TRIMIGLTLVFFVQITGQPNILFY [SLC2A12], in that order: 3.16 ± 0.61 and 3.27 ± 0.35.
For TRKINNSFLRDHSYATEADIISTV [PPP2R2B], in that order: 3.32 ± 0.14 and 3.32 ± 0.12.
As to TRYHLQQARRQQVKQYLSTTLGPK [TFE3], the protein stability index by setting is: (treatment: DMSO) 3.21 ± 0.15; (treatment: MLN4924 1 uM, 8 h) 3.29 ± 0.2.
With TSLEITILTSQPGKEVVKQLEEGL [M1AP], the protein stability index (treatment: DMSO) was determined as 2.74 ± 0.22 and the protein stability index (treatment: MLN4924 1 uM, 8 h) came to 2.68 ± 0.2.
For TSNSDDNMLKNIELFDKLSLRFNG [KCTD10], in that order: 3.07 ± 0.3 and 3.18 ± 0.39.
For TSPAKDSLSFEDFLDLLSVFSDTA [CIB1], in that order: 2.28 ± 0.1 and 2.45 ± 0.27.
Consider TSRTQVYKPPALKKSNSPGTASSG [ZC2HC1A], for which the protein stability index reads like this: (treatment: DMSO) 4.42 ± 0.15; (treatment: MLN4924 1 uM, 8 h) 4.46 ± 0.17.
For TTGIVETHFTFKDLHFKMFDVGGQ [GNAI1], in that order: 2.08 ± 0.35 and 2.27 ± 0.14.
For TTLGPKLASQALTPPPGPASAQPL [TFE3], in that order: 4.4 ± 0.48 and 4.4 ± 0.18.
For TVEERQTGMWWRHLVAGGGAGAVS [SLC25A25], in that order: 2.98 ± 0.39 and 2.96 ± 0.43.
With TVEPGKLDVGATEGQDLQHISNQK [DRICH1], the protein stability index (treatment: DMSO) worked out at 5.43 ± 0.23 and the protein stability index (treatment: MLN4924 1 uM, 8 h) was determined as 5.4 ± 0.4.
In the case of TVLTRSLFLGRILSLTSSASRLLT [FANCE], the protein stability index runs as follows: (treatment: DMSO) 2.72 ± 0.13; (treatment: MLN4924 1 uM, 8 h) 2.81 ± 0.2.
